Assay results: patent US8512970B2, “Rapid bioluminescence detection assay” (The Secretary of State for Health, priority 2009, dated 2013)

B1: S. acidocaldarius: Adenylate kinase (AK) from Sulfolobus acidocaldarius, trimer; reporter kinase (protein, UniProt P35028 1-194, looked up)
Adenylate kinase: MKIGIVTGIPGVGKSTVLAKVKEILDNQGINNKIINYGDFMLATALKLGYAKDRDEMRKLSVEKQKKLQIDAAKGIAEEARAGGEGYLFIDTHAVIRTPSGYLPGLPSYVITEINPSVIFLLEADPKIILSRQKRDTTRNRNDYSDESVILETINFARYAATASAVLAGSTVKVIVNVEGDPSIAANEIIRSMK
B2: T. maritima: Adenylate kinase (AK) from Thermotoga maritima, monomer; reporter kinase (protein, UniProt Q9X1I8 1-220, looked up)
Adenylate kinase: MMAYLVFLGPPGAGKGTYAKRLQEITGIPHISTGDIFRDIVKKENDELGKKIKEIMERGELVPDELVNEVVKRRLSEKDCERGFILDGYPRTVAQAEFLDGFLKTQNKELTAAVLFEVPEEVVVQRLTARRICPKCGRIYNLISLPPKEDELCDDCKVKLVQREDDKEETVRHRYKVYLEKTQPVIDYYDKKGILKRVDGTIGIDNVIAEVLKIIGWSDK

Assay: Isoelectric point of reporter kinases (Table 2)
Assay type: physicochemical

Row | Molecule | pI Actual (if known)
1 | B1 | > 10
2 | B2 | ~6.7
